This is an account of results in patent US20250340646A1 (ELPIS BIOPHARMACEUTICALS, published 2025).

What is called EC50 is the concentration needed to bring the measured effect to its halfway point. A word on the Kd: it is a measure of binding affinity in units of concentration. The term koff denotes the rate constant with which the complex falls apart. The term kon denotes the rate constant with which the complex forms.

The target in assay [1] is T1, full-length human PD-L1 on K562 cells (human, UniProt Q9NZQ7 19-290).
T1 construct: also called PD-L1/K562; cell surface human PD-L1
T1 sequence (Q9NZQ7 19-290 limits assumed): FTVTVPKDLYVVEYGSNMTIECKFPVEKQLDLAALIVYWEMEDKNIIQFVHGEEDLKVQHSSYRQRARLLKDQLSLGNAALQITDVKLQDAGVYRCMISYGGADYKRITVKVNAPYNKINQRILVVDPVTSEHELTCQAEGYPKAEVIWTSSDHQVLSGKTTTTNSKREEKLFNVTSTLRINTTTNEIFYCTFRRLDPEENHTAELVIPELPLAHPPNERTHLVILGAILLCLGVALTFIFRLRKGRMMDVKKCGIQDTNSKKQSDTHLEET
The assay can be described thus: FACS, PD-L1/K562 cells. The protocol:
Cells were spun down at 1200 rpm for 5 minutes at 4° C. to remove primary antibodies. Cells were then washed once with 200 μL of full medium per well. […] Samples were spun down at 1200 rpm for 5 minutes at 4° C. and washed twice with 200 μL of 1×PBS per well. Samples were reconstituted in 200 μL of 1×PBS and were read on Attune NxT cytometer.

For assay [2], the target named is T2, recombinant His-tagged human IL-2Rβ (human, UniProt P14784 27-240, limits assumed).
T2 construct: also called IL-2Rβ-HIS; IL-15Rβ-HIS
T2 sequence (looked up): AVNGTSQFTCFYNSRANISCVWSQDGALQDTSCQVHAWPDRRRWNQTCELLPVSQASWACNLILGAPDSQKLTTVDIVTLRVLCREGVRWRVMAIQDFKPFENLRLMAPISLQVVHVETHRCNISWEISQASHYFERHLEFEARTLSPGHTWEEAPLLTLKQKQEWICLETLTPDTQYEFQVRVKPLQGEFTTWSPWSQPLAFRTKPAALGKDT
The assay can be described thus: SPR, Protein A capture, IL-2Rβ-HIS analyte. Here is the method:
(§1) The assay was run with Biacore T200 control software version 2.0. For each cycle, 1 μg/mL of anti-hPD-L1/IL-2 was captured for 60 seconds at flow rate of 10 μL/min on flow cell 2 in 1×HBSP buffer on Protein A sensor chip. […] The flow cells were then regenerated with Glycine pH2 for 60 seconds at flow rate of 30 μL/min. […] The specific binding response unit was derived from subtraction of binding to reference flow cell 1 from antibody captured flow cell 2.
For orientation: Surface plasmon resonance follows binding to a sensor surface in real time, without labels.

Assay [3] addresses T3, human PD-L1-HIS tagged recombinant protein (human, UniProt Q9NZQ7 19-238).
T3 construct: also called hPD-L1-HIS; PD-L1 HIS tagged protein
The assay is described as follows: SPR, Protein A capture, PD-L1-HIS analyte. The protocol: as §1

The target in a further assay is biotinylated PD-L1 (Homo sapiens (Human), UniProt Q9NZQ7 19-238, biotinylated; site not stated). The assay is described as follows: ELISA, anti-human Fc capture, biotinylated PD-L1. The protocol:
A 384 well plate was immobilized with anti-human Fc at final concentration of 2 μg/mL in 1×PBS in total volume of 25 μL per well. The plate was incubated overnight at 4C followed by blocking with 80 μL of superblock per well for 1 hour. […] In between each step, the plate was washed 3 times with 1×PBST in a plate washer. The plate was then developed with 25 μL of TMB substrate for 5 min and stopped by adding 25 μL of 2N sulfuric acid. The plate was read at OD450 nm Biotek plate reader and the binding correlation was plotted with Prism 8.1 software. The ELISA binding assays of the antibodies to IL-2Rα and IL-2Rβ receptors were performed as described in Example 6.
(In general: An ELISA detects its analyte on a solid surface through an enzyme-linked reagent.)

In assay [4] the target is T2, recombinant His-tagged human IL-2Rβ. The assay is described as follows: ELISA, coated His-tagged IL-2Rβ. The protocol: For monovalent IL-2 Fc-fusion proteins, recombinant His-tagged human IL-2Rα and IL-2Rβ were added in 25 μL of 1×PBS to wells of 384-well plate and incubated overnight at 4° C. to coat the plates. Plates were washed three times with 0.05% Tween20/1×PBS. Plates were blocked with 100 μL of SuperBlock for 1 hr at RT and then washed 3 times with 0.05% Tween20/1×PBS. IL-2 mutants were diluted in 0.05% Tween 20/1×PBS from 1000 nM to 0 nM and added to plates for 2 hrs at room temperature. Plates were then washed 6 times with 0.05% Tween20/1×PBS. Anti-HisTag-HRP was diluted 1:5000 in 0.05% Tween20/1×PBS and added to plates for 1 hr at RT. Plates were then washed 6 times with 0.05% Tween 20/1×PBS, and TMB was added to develop blue color. Reactions were stopped with 2N […] and light absorbance at 450 nm was read on a BioTek plate reader. Absorbance versus IL-2 concentration is graphed for human IL-2Rα and IL-2Rβ. […]

T3 sequence (Q9NZQ7 19-238 limits assumed): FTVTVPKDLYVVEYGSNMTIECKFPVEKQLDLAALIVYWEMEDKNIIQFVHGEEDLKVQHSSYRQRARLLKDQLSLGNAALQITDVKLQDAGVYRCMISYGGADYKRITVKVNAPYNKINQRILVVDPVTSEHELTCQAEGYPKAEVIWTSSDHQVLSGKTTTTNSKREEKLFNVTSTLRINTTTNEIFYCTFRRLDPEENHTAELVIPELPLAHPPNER
Chain of biotinylated PD-L1 (Q9NZQ7 19-238 limits assumed): as above

B1: 2018EP164-F04 scFv (scFv, V domains shown)
VH: QVQLQQWGAGLLKPSETLSLTCAVYGGSFSGYYWSWIRQPPGKGLEWIGEINHSGSTNYNPSLKSRVTISVDTSKNQFSLKLSSVTAADTAVYYCARGRRLRYFDWAAYNWFDPWGQGTLVTVSS
VL: QSALTQDPAVSVALGQTVRITCQGDSLRSHYASWYQQKPGQAPVVVVYDNSDRPSGIPDRFSGSNSGNTATLTISRVEVGDEADYYCQVWDSSSDHYVFGTGTKV
Consider B1, for which, in assay [1], the half-maximal effective concentration (EC50) is less than 1 nM.

B2: 2018EP172-F10 scFv (scFv, V domains shown)
VH: QMQLVQSGAEVKKPGSSVKVSCKASGGTFSSYAISWVRQAPGQGLEWMGGIIPIFGTANYAQKFQGRVTITADESTSTAYMELSSLRSEDTAVYYCARDKGYGSGWRGDYWGQGTLVTVSS
VL: QSVLTQPPSASGTPGQRVTISCSGSYSNIGSNFVNWYQQLPGTAPKLLIHFDNQRPSGVPDRFSGSRSGTSASLAISGLQSEDEADYFCSTWDDSLKGPIFGGGTKLTVL
B2: in assay [1], the EC50 was less than 1 nM.

B3: 2018EP161-F08 scFv (scFv, V domains shown)
VH: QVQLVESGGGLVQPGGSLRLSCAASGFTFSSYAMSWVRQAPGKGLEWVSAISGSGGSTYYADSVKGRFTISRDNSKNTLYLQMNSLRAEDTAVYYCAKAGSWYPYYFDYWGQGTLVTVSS
VL: DIVMTQSPSSLSASVGDRVTITCRASQTVSTYINWYQQRSGKGPKLLIFDASRLQSGAPSRFSGSGSGTEFTLTITSLQPDDSATYYCQQSYRIPLSFGGGTKVEIR
In turn, B3 gave an EC50 in assay [1] of 7.72 nM.

B4: IL-2/anti-PD-L1 scFv Fc EP291/EP326 (bispecific antibody)
chain 1: not shown
chain 2: QVQLVQSGAEVKKPGSSVKVSCKASGGTFSSYAISWVRQAPGQGLEWMGGIIPIFGTANYAQKFQGRVTITADESTSTAYMELSSLRSEDTAVYYCARDKWYGSAWRGDYWGQGTLVTVSSGGGGSGGGGSGGGGSQSVLTQPPSASGTPGQRVTISCSGSYSNIGSNFVNWYQQLPGTAPKLLIHFNNQRPSGVPDRFSGSRSGTSASLAISGLQSEDEADYFCSTWDDSLKGPIFGGGTKLTVLDKTHTCPPCPAPEAAGGPSVFLFPPKPKDTLMISRTPEVTCVVVDVSHEDPEVKFNWYVDGVEVHNAKTKPREEQYNSTYRVVSVLTVLHQDWLNGKEYKCKVSNKALGAPIEKTISKAKGQPREPQVCTLPPSRDELTKNQVSLSCAVKGFYPSDIAVEWESNGQPENNYKTTPPVLDSDGSFKLVSKLTVDKSRWQQGNVFSCSVMHEALHNHYTQKSLSLSPGK
notes: IL2 EP003
B4: the Kd was determined as 1.87 nM in assay [2] and 0.34 nM in assay [3]. In addition, the values for the concentration for a half-maximal effect (EC50) (in the assay with biotinylated PD-L1; in assay [4]) were 0.246 nM and 0.552 nM, respectively.

B5: IL-2/anti-PD-L1 scFv Fc EP417/EP326 (bispecific antibody)
chain 1: not shown
chain 2: B4 chain 2
notes: IL2 EP339
With B5, the figures for the Kd in assay [2] and in assay [3] were 21.9 nM and 0.429 nM, respectively. Further, the EC50 with biotinylated PD-L1 stood at 0.188 nM; in assay [4], 0.515 nM.

B6: IL-2/anti-PD-L1 scFv Fc EP416/EP326 (bispecific antibody)
chain 1: not shown
chain 2: B4 chain 2
notes: IL2 EP338
Consider B6, for which the dissociation constant (Kd) worked out at 26.5 nM in assay [2] and 0.39 nM in assay [3]. In addition, the EC50 with biotinylated PD-L1 stood at 0.298 nM; in assay [4] it was 1.24 nM.

B7: IL-2/anti-PD-L1 scFv Fc EP419/EP326 (bispecific antibody)
chain 1: not shown
chain 2: B4 chain 2
notes: IL2 EP343
Turning to B7, the figures for the EC50 (with biotinylated PD-L1; in assay [4]) were 0.206 nM and 0.613 nM, respectively.

B8: IL-2/anti-PD-L1 scFv Fc EP414/EP326 (bispecific antibody)
chain 1: not shown
chain 2: B4 chain 2
notes: IL2 EP003 carrying K35L/R38D/F42R
Turning to B8, the figures for the EC50 (with biotinylated PD-L1; in assay [4]) were 0.212 nM and 0.51 nM, respectively.

B9: IL-2/anti-PD-L1 scFv Fc EP297/EP326 (bispecific antibody)
chain 1: not shown
chain 2: B4 chain 2
notes: IL2 EP001
Turning to B9, the equilibrium dissociation constant (Kd) in assay [2] came out at 3.32 nM; in assay [3], 0.19 nM. Also, the off-rate constant (koff) in assay [2] was found to be 0.00854 s⁻¹; in assay [3], 0.000149 s⁻¹. Further, the results for the kon in assay [2] and in assay [3] were 2.57e+06 M⁻¹ s⁻¹ and 782000 M⁻¹ s⁻¹, respectively. Further, the 50% effective concentration (EC50) in the assay with biotinylated PD-L1 was 0.108 nM; in assay [4], 0.43 nM.

B10: 2018EP173-H11 scFv (scFv, V domains shown)
VH: QVQLVQSGGGLVKPGGSLRLSCAASGFTFSSYSMNWVRQAPGKGLEWVSSISSSSSYIYYADSVKGRFTISRDNAKNSLYLQMNSLKAEDTAVYYCARDSLQWLALDYWGQGTLVTVSS
VL: QPVLTQPPSVSVAPGETATITCGGNNIGRKSVHWYLQKPGQAPVLVIGHDTDRPSGIPARFSGSNSGNTATLTINRVEAGDEADYYCQVWDTSGHHYVFGTGTKVTVL
notes: not shown: scFv linker and domain order of the library scFv
In assay [1], B10 registered an EC50 of 5.1 nM.
